The results in this text go back to article PMC12578283 (Protein & Cell, 2025).

The test deals with p15 protein of African swine fever virus (African swine fever virus, UniProt Q65179).

B1: 4C7 (antibody, V domains shown)
VH: QVQLHQPGSVLVRPGTSVKLSCKASGYTFTSSWMNWAKQRPGQGLEWIGEIHPRSGNTNYNENFKGKATLTVDTSSSTAYVDLSSLASEDSAVYYCARSGGTYYYAMDSWGQGTSVTVSS
VL: DIQMTQTTSSLSASLGDRVTISCRASQDISNYLNWYQQKPDGTVKLLIYYTSRLHSGVPSRFSGSGSGTDFSLTISTLEQEDFATYFCQQANTSPYTFGGGTKLEIN
As for B1, the binding result is reported as “binds”.

B2: 1G9 (antibody, V domains shown)
VH: QVQLQQPGPELVRPGASVKLSCKASGYTFTTYWMKWVRQRPGQGLEWIGTIDPSDNEIHYNQIFKDKATLTVDKSSSTAYMHLSSLTSEDAAVYYCARWDGTSYYAMDYWGQGTSVTVSS
VL: DVVMSQTPLSLPVSLGDQASISCRSSQSLVHSNGNTYLHWYLQKPGQSPKLLIYKVSNRFSGVPDRFSGSGSGTDFTLKISRVEAEDLGVYFCSQSTHVPPTFGGGTKLEIK
For B2, the binding result is “binds”.
